B1: Anti-ZIKV clone DT168(A)-D1_A-9E (A9E) (antibody, V domains shown)
VH: EVQLLESGGGLVQAGGSLRLSCAASGFTFDTYAMSWVRQPPGKGLEWVSAISTGGGSKYYADSVKGRLTISRDNSQNTLYLQMSSLRADDTAVYYCARSDFWRSGRYYYYMDVWGRGTTVTVSS
VL: QSALTQPASVSASPGQSITISCTGTHFDIVDYDYLSWYQQHPGNAPKLLIYGVSNRPSGVSSRFSGSKSGNTASLTISGLQAEDEGDYYCSSYSISSTLLVFGGGTKLSV
B2: Anti-ZIKV clone DT168(A)-D1_G-9E (G9E) (antibody, V domains shown)
VH: EVQLVESGGGVVQPGRSLRLSCVASGFAFSNYHMHWVRQAPGKGLEWVAIIWDDGSDQYYADSVKGRFTISRDNSKNTLFLQMNRLRAEDTALYYCVGGSSAYNGDNGWREAASLDDWGQGTLVTVSS
VL: QSALTQPASVSGSPGQSITIFCSGSSNDVGGYNYVSWYQQYPGKVPKLLIYDVNSRPSGVSNRFSGSKSGNTASLTISGLQAEDEADYYCSSYTSRRTWVFGGGTIVTVL

Target: Dengue virus serotype 4 (DENV4) virions, envelope protein E (Dengue virus 4)

Binder | FRNT50 (focus reduction neutralization on Vero cells)
B1 | > 10000 ng/mL
B2 | > 10000 ng/mL

— patent US20210054055A1
